Laboratory results as given in patent publication US20260049134A1 (UNIVERSITY OF FLORIDA RESEARCH FOUNDATION, published 2026).

What was measured:
[1] = biological target: T1, ICAM1, endogenous in H929 multiple myeloma cells (human, UniProt P05362 28-532); assay: flow cytometry, H929 + vehicle; None 2.74
T1 construct: Native protein on H929 cells (flow cytometry, siRNA knockdown) and in H929 lysates (IP/MS); also called CD54

[2] = biological target: T2, PTPRG, endogenous in H929 multiple myeloma cells (human, UniProt P23470 20-1445); assay: flow cytometry, IgG1 on cell lines, heatmap of % positive cells
T2 construct: Native protein on H929 cells (flow cytometry, siRNA knockdown) and in H929 lysates (IP/MS); also called phosphatase receptor type γ

PTPRG on U266 cells = biological target: T3, PTPRG on U266 cells (human, UniProt P23470); assay: as above
T3 construct: endogenous on U266 multiple myeloma cells; also called HW-1 target on U266

[3] = biological target: T1, ICAM1, endogenous in H929 multiple …; assay: flow cytometry, IgG1 on H929 cells
Procedure, shortened: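 5×10⁴ cells stained 30 min on ice with IgG1 (0.1 to 50 μg/mL) then secondary antibody, with DAPI or SYTOX AADvanced viability stain, and read by flow cytometry. Alexa Fluor 647-labeled IgG1s used for single-step staining; for competition, unlabeled IgG1 at 60 μg/mL blocked 30 min before labeled antibody at 2 μg/mL for another 30 min.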

[4] = biological target: T2, PTPRG, endogenous in H929 multiple …; assay: flow cytometry, H929 + CDH18 siRNA; None 0.19
[5] = biological target: T4, CADM1, endogenous in H929 multiple myeloma cells (human, UniProt Q9BY67 45-442); assay: flow cytometry, H929 + CDH18 siRNA; None 0.19
T4 construct: Native protein on H929 cells (flow cytometry, siRNA knockdown) and in H929 lysates (IP/MS); RPMI-8226 cells were used for sorting with HW-97; also called IGSF4A
T4 sequence: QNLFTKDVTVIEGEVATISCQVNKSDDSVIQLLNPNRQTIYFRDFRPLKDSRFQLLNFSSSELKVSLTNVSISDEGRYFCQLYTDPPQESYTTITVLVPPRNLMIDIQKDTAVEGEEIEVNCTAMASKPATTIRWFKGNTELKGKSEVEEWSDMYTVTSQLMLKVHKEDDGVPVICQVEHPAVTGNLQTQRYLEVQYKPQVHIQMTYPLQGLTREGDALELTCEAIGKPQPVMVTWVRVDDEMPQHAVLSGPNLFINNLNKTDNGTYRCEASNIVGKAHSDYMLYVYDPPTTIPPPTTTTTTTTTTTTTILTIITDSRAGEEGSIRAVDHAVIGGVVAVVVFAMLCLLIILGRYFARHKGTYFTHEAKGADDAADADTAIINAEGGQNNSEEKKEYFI

[6] = biological target: T1, ICAM1, endogenous in H929 multiple …; assay: flow cytometry, H929 + PTPRG siRNA; None 2.13
[7] = biological target: T1, ICAM1, endogenous in H929 multiple …; assay: flow cytometry, H929 + CDH18 siRNA; None 0.19
[8] = biological target: T1, ICAM1, endogenous in H929 multiple …; assay: flow cytometry, H929 + PTPRG siRNA; None 490

T1 sequence (P05362 28-532 limits assumed): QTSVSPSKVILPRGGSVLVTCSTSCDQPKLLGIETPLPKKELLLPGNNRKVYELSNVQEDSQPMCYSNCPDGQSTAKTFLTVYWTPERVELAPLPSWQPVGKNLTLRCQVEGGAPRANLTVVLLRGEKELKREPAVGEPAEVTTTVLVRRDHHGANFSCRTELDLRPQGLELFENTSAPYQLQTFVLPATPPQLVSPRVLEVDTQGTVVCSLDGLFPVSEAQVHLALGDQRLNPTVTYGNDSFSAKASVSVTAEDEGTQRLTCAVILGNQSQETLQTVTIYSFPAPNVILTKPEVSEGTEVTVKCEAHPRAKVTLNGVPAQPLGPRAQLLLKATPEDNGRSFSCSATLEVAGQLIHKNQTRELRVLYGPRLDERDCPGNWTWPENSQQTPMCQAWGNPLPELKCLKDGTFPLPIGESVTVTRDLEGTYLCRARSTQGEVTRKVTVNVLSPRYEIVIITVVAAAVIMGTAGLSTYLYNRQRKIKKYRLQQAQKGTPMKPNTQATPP
T2 sequence (P23470 20-1445 limits assumed): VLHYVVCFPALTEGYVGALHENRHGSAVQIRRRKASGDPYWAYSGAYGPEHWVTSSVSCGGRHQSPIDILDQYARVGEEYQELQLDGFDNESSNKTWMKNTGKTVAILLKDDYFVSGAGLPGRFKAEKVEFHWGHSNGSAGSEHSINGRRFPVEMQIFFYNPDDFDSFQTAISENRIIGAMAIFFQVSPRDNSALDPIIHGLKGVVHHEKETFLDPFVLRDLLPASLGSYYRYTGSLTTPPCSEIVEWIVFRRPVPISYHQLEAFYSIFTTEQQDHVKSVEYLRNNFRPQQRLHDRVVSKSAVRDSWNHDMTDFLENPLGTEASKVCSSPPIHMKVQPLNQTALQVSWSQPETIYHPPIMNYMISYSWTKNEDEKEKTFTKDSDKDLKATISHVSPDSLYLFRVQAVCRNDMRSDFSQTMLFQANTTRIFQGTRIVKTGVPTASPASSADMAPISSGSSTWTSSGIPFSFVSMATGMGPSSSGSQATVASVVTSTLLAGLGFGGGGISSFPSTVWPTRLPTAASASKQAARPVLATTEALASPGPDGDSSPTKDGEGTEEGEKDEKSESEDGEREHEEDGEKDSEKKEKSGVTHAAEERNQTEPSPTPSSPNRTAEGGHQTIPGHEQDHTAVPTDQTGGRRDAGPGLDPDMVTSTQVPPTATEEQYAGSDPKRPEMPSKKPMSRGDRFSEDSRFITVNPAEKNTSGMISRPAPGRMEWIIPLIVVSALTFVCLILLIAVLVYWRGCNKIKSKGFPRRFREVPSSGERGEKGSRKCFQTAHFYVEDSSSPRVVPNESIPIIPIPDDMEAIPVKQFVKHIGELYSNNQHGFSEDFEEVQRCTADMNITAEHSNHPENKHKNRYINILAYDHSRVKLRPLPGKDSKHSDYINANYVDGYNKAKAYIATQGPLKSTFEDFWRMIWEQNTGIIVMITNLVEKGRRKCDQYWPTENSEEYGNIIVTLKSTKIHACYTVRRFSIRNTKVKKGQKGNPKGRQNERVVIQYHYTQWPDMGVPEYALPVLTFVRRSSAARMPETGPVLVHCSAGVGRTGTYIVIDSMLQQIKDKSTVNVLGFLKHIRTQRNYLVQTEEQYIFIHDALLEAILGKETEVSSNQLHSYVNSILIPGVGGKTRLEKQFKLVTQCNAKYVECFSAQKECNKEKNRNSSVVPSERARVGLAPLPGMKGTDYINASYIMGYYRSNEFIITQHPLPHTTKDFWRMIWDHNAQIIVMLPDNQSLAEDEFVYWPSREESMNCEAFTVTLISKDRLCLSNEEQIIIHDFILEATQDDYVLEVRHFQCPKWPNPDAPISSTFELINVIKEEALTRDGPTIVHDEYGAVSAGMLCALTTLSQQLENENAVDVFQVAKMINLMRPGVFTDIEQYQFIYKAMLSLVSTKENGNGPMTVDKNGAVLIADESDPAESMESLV
T3 sequence (P23470 20-1445 limits assumed): as above

B1: TH9-0022 (antibody, human IgG1, kappa, L234A L235A, V domains shown)
VH: QSLEESGGRLVTPGTPLTLTCTVSGFSLSSYAMNWVRQAPGKGLEWIGIINSYGSTYYASWAKGRFTISKTSTTVDLKITSPTTEDTATYFCARVTYDSYGYGYAPYGMDLWGPGTLVTVSS
VL: LVMTQTPSSTSNAVGGTVTIKCQASQSIGNVLAWYQQKPGQPPKLLIYAASTLASGVPSRVGGSRSGTEYTLTISGVQREDAATYYCLGSDSDSDIAFGGGTELEILR
notes: also called TH9-022; negative control
Cells stained (%) [1]: 2.62%

B2: TH9-0022 (antibody, human IgG1, kappa, L234A L235A, V domains shown)
VH: QSLEESGGRLVTPGTPLTLTCTVSGFSLSSYAMNWVRQAPGKGLEWIGIINSYGSTYYASWAKGRFTISKTSTTVDLKITSPTTEDTATYFCARVTYDSYGYGYAPYGMDLWGPGTLVTVSS
VL: LVMTQTPSSTSNAVGGTVTIKCQASQSIGNVLAWYQQKPGQPPKLLIYAASTLASGVPSRVGGSRSGTEYTLTISGVQREDAATYYCLGSDSDSDIAFGGGTELEILR
notes: also called TH9-022; negative control IgG1
binding result [2]: no binding | binding result (PTPRG on U266 cells): no binding | antibody-bound positive cells (%) [3]: 2.7%

B3: HW-42 chimeric rabbit-human IgG1 LA/LA/PG (antibody, V domains shown)
VH: QSVKESEGGLFKPADTLTLTCTVSGFSLSSNEISWVRQAPGEGLEYIGIIDTGGRAYYAVWARSRSTITRNTNLNTVTLKMTSLTAADTATYFCARGGVDTEWYAFSSWGPGTLVTVPS
VL: SFVLTQPASVQVNLGQTVSLTCTADTLSRRYASWYQQKPGQAPVLLIFRDTSRPSGVPDRFSGSSSGDTATLTISGAQAGDEADYYCATSDGSGSNYQYVFGGGTQLTVTG
notes: Fc-silenced (L234A/L235A/P329G) IgG1, lambda; Alexa Fluor 647-labeled in single-step flow cytometry; Cluster C-1
Cells stained (%) [4]: 99.5%

B4: HW-97 chimeric rabbit-human IgG1 LA/LA/PG (antibody, V domains shown)
VH: QKQLVESGGRLVTPGTPLTLTCTVTGIDLSSHGMSWVRQAPGKGLEWIGVIYPSGSTWYASWARGRFTISKTSTTVDLKMTSLTTEDTATHFCARGDVGGADNNIWGPGTLVTVSS
VL: SFVLTQPASVQVDLGQTVSLTCTAETLSRSYASWYQQKPGQAPVLLIYRDTSRPSGVPDRFSGSSSGNTATLTISGAQAGDEADYYCATSDGSGSSYQYVFGGGTQLTVTG
notes: Fc-silenced (L234A/L235A/P329G) IgG1, lambda; Alexa Fluor 647-labeled in single-step flow cytometry; Prototype of cluster C-97
Cells stained (%) [5]: 99.7%

B5: HW-113 chimeric rabbit-human IgG1 LA/LA/PG (antibody, V domains shown)
VH: QKQLVESGGGLVQPGGSLTLTCTVSGFSLNKYYMGWFRQAPGKGLEWIGVISRSGDTYYSSWAKGRFTISKASTTVDLRITSPTTEDTATYFCARDASSPGFHGDRLDLWGQGTLVTVSS
VL: SFVLTQPASVQVNLGQTVSLTCTADTLSRSYASWYQQKPGQAPVLLIYRDTSRPSGVPDRFSGSSSGNTATLTISGAQAGDEADYYCATSDGIGSNYLWVFGGGTQLTVTG
notes: Fc-silenced (L234A/L235A/P329G) IgG1, lambda; Alexa Fluor 647-labeled in single-step flow cytometry
Cells stained (%) [6]: 98.2% | Cells stained (%) [7]: 98.8% | mAb binding (MFI) [8]: 27800 | antibody-bound positive cells (%) [3]: 95.8% | Cells stained (%) [1]: 99.8%
